The values below come from patent US20260210971A1 (Pfizer, published 2026).

In assay [1] the target is T1, endogenous TL1A of stimulated human peripheral blood (human, UniProt O95150 72-251, limits assumed).
T1 sequence (looked up): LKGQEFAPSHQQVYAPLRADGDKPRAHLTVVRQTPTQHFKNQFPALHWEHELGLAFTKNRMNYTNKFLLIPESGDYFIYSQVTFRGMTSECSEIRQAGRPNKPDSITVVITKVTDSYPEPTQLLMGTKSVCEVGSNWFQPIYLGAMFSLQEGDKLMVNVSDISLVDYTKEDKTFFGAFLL
Nature of the assay: cell-based or functional assay.

The target of assay [2] is T2, recombinant soluble cynomolgus monkey TL1A (cynomolgus monkey, UniProt O95150 72-251 (human entry)).
T2 construct: also called cyno rsTL1A; cyno TL1A
T2 chain: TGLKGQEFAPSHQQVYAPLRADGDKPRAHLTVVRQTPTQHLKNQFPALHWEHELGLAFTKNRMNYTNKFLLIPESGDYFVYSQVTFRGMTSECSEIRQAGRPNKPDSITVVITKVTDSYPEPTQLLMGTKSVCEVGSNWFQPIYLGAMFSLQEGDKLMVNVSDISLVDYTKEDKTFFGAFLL
The experiment in a line: KinExA, equilibrium in solution.

In assay [3] the target is T3, recombinant soluble murine TL1A (mouse, UniProt Q5UBV8 75-252).
T3 construct: also called murine rsTL1A; mouse TL1A
T3 chain: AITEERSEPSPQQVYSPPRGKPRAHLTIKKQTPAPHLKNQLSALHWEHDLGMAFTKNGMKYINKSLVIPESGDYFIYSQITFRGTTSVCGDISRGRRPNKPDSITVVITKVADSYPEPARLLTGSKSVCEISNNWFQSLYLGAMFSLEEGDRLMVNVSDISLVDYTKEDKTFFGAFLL
The experiment in a line: KinExA, equilibrium in solution.

Assay [4] addresses T2, recombinant soluble cynomolgus monkey …. Nature of the assay: SPR, IgG captured on anti-hIgG, TL1A injected.
Description: To characterize the binding kinetics of the anti-TL1A antibodies to TL1A by surface plasmon resonance, each anti-TL1A antibody was captured via directly immobilized anti-human IgG (GE Healthcare) onto a carboxymethylated dextran sensor chip surface (CM5) using a Biacore T100 or T200 instrument. Anti-human IgG was immobilized through amine coupling to densities of approximately 4,000-13,000 response units (RU). […] At the end of each cycle, the entire anti-human IgG (hIgG) surface was regenerated by a 30-second pulse of 3M MgCl₂ followed by two consecutive 15-second pulses of PBS-NET. All injections were performed at 25° C. at a collection rate of 10 Hz. All sensorgrams were double referenced by using both a control surface and buffer injections. Rate constants were determined by fitting the data to a 1:1 model in Biacore T100, T200 evaluation software v1.0, or BIAevaluation software v4.1.1 and the equation KD=kd/kₐ.
The anti-TL1A antibodies were captured onto immobilized anti-human Fc on a CM5 sensor chip on a Biacore T100 instrument. […] Rate constants shown in the table were determined by fitting to a 1:1 Langmuir binding model in BiaEvaluation v4.1.1 (fit lines shown in red). Data shown are the average and standard deviation of at least 3 independent surfaces between 2 experiments.
Assay [5] shares this target. The experiment in a line: SPR, IgG captured on anti-hIgG, TL1A injected.
In assay [6] the target is T3, recombinant soluble murine TL1A. Nature of the assay: SPR, IgG captured on anti-hIgG, TL1A injected.
The target of assay [7] is T2, recombinant soluble cynomolgus monkey …. The experiment in a line: SPR, IgG captured on anti-hIgG, TL1A injected.
Description: (§1) The antibodies were captured via directly immobilized anti-human IgG (GE Healthcare) onto a carboxymethylated dextran sensor chip surface (CM5) using a Biacore T100 or T200 instrument. Anti-human IgG was immobilized through amine coupling to densities of approximately 4,000-13,000 response units (RU). […] At the end of each cycle, the entire anti-hIgG surface was regenerated by a 30-second pulse of 3M MgCl₂ followed by two consecutive 15-second pulses of PBS-NET. […] All injections were performed at 25° C. at a collection rate of 10 Hz. All sensorgrams were double referenced by using both a control surface and buffer injections. Rate constants were determined by fitting the data to a 1:1 model in Biacore T100, T200 evaluation software v1.0, or BIAevaluation software v4.1.1 and the equation KD=Kd/kₐ.
(§2) At the highest cytokine concentrations, the dissociation phase was sometimes extended to 60 minutes to achieve at least a 5% decrease in binding signal.
For assay [8], the target named is T3, recombinant soluble murine TL1A. Nature of the assay: SPR, IgG captured on anti-hIgG, TL1A injected.
Description: as §1, §2
For assay [9], the target named is T4, recombinant soluble rat TL1A (rat, UniProt Q8K3Y7 76-252).
T4 construct: also called rat rsTL1A
T4 sequence: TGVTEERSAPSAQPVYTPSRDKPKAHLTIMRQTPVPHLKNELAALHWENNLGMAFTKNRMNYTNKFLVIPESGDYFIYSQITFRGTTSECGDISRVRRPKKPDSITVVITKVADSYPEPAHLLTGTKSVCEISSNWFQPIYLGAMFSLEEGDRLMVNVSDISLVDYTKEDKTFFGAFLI
The experiment in a line: SPR, IgG captured on anti-hIgG, TL1A injected.

Assay [10] has as its target T5, recombinant soluble rabbit TL1A (rabbit).
T5 construct: also called rabbit rsTL1A
T5 chain: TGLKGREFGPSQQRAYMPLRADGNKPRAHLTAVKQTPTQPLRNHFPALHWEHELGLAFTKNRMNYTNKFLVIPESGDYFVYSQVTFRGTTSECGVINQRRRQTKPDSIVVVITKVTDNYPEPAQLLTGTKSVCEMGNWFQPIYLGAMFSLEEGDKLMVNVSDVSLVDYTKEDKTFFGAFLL
The experiment in a line: SPR, IgG captured on anti-hIgG, TL1A injected.
Description: as §1, §2

Assay [11] has as its target T6, recombinant soluble human TL1A (human, UniProt O95150 71-251).
T6 construct: Homotrimer, expressed in HEK293 and purified over HitrapNTA; no tag is described; Used biotinylated in the HTRF assay and in flow cytometry; also called rsTL1A; hTL1A
T6 sequence: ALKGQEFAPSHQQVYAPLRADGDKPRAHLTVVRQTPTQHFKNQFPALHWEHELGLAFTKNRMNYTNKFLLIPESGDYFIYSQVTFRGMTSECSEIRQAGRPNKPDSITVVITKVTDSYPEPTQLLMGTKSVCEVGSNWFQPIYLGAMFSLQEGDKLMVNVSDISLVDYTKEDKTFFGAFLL
Nature of the assay: binding test of the 1D1 point mutants, method not named.

Changes are numbered by the printed parent chain. Like-named read-outs stand apart in the source and are kept apart here.

B1: anti-TL1A antibody 1D1 (antibody, human IgG1, kappa, V domains shown)
VH: QVQLVQSGAEVKKPGASVKVSCKASGYSFTYYGISWVRQAPGQGLEWMGWISTYNGNTNYARMLQGRVTMTTDTSTRTAYMELRSLRSDDTAVYYCARENYYGSGSYRGGMDVWGQGTTVTVSS
VL: EIVLTQSPATLSLSPGERATLSCRASQSVSSYLAWYQQKPGQAPRLLIYDASNRATGIPARFSGSGSGTDFTLTISSLEPEDFAVYYCQQRSNWPWTFGQGTKVEIKR
notes: Human IgG1 with effector-null triple mutation (hIgG1-3m), kappa; The first binning was done with the antibodies from the hybridoma screen; also called 1D1 parental; Parental 1D1
Consider B1, for which the “HWB Assay, average IC50” value in assay [1] was found to be 0.248 nM. Besides, the Kd was determined as 0.384 nM in [2]; 0.383 nM in assay [3]; 7 nM in [4]; 1.67 nM in [5]; 1.32 nM in assay [6]; 6.69 nM in [7]. For the same molecule, the Kd amounted to 7.29 nM in assay [8], 8.14 nM in [9] and 1.31 nM in [10]. Further, the koff amounted to 0.0041 s⁻¹ in [4]; 0.0041 s⁻¹ in [7]; 0.0036 s⁻¹ in assay [8]; 0.0134 s⁻¹ in assay [9]; 0.00079 s⁻¹ in assay [10]. Further, the kon was found to be 600000 M⁻¹ s⁻¹ in [4]; 600000 M⁻¹ s⁻¹ in [7]; 490000 M⁻¹ s⁻¹ in [8]; 1.71e+06 M⁻¹ s⁻¹ in [9]; 610000 M⁻¹ s⁻¹ in assay [10]. The t1/2 stood at 2.82 min in assay [7], 3.25 min in assay [8], 0.867 min in assay [9] and 14.6 min in assay [10].

B2: 1D1 with heavy chain mutation Y31H (antibody, V domains shown)
VH: B1 VH with Y31H
VL: EIVLTQSPATLSLSPGERATLSCRASQSVSSYLAWYQQKPGQAPRLLIYDASNRATGIPARFSGSGSGTDFTLTISSLEPEDFAVYYCQQRSNWPWTFGQGTKVEIK
notes: Point mutant of 1D1 CDR-H1
Take B2: the Kd in assay [11] was determined as 12.7 nM.
